{
  "source": "patent US20180371095A1",
  "about": "(published 2018)",
  "binders": {"B1": {"name": "recombinant human Siglec-7 (rhSiglec-7)/Fc protein (Fc fusion, UniProt Q9Y286 19-357, looked up)", "chain": "QKSNRKDYSLTMQSSVTVQEGMCVHVRCSFSYPVDSQTDSDPVHGYWFRAGNDISWKAPVATNNPAWAVQEETRDRFHLLGDPQTKNCTLSIRDARMSDAGRYFFRMEKGNIKWNYKYDQLSVNVTALTHRPNILIPGTLESGCFQNLTCSVPWACEQGTPPMISWMGTSVSPLHPSTTRSSVLTLIPQPQHHGTSLTCQVTLPGAGVTTNRTIQLNVSYPPQNLTVTVFQGEGTASTALGNSSSLSVLEGQSLRLVCAVDSNPPARLSWTWRSLTLYPSQPSNPLVLELQVHLGDEGEFTCRAQNSLGSQHVSLNLSLQQEYTGKMRPVSGVLLGAVG", "notes": "also called Fc-tagged Siglec7 protein; human Siglec-7 Fc protein; not shown: human IgG Fc region"}},
  "molecular_target": "T1, HEK293 cells transfected with recombinant human VSIG3-eGFP (human, UniProt Q5DX21 23-431)",
  "T1 construct": "whole, on cells; not shown: eGFP",
  "T1 sequence (looked up)": "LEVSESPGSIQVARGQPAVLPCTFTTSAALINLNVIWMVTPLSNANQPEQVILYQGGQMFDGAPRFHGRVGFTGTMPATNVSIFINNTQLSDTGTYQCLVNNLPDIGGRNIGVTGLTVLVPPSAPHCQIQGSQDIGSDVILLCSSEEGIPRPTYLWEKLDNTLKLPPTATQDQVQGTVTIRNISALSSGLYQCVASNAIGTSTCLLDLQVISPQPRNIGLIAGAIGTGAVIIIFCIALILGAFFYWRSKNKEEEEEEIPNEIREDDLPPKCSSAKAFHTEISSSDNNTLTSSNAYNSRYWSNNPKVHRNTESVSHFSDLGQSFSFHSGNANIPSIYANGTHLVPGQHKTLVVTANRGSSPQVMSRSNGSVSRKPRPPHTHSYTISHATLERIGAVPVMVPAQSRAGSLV",
  "assay": "flow cytometry, anti-Fc APC detection",
  "data": [
    {"binder": "B1", "values": [
      {"measurement": "binding result", "value": "no binding"}
    ]}
  ]
}
